Experimental data from patent US20050208042A1 (GENETICS INSTITUTE, published 2005).

T1: human B7-2 (CD86) expressed on the cell surface (CHO/hB7-2 cells) (human, UniProt P42081 24-329)
T1 sequence (looked up): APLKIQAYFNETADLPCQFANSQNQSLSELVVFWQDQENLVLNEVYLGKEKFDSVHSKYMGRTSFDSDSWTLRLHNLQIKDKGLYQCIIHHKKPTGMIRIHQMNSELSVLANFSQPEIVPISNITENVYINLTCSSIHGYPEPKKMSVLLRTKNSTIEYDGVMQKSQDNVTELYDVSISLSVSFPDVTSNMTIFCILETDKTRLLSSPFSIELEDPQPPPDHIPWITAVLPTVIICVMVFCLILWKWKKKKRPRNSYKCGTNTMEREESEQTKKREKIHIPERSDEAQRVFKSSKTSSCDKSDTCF

T2: human B7-2Ig (recombinant soluble hB7-2Ig) (human, UniProt P42081 24-247)
T2 construct: extracellular domain; Secreted by CHO cells, purified on protein A, immobilized on the BIACORE chip; not shown: hinge-CH2-CH3 domains of the human IgG1 heavy chain
T2 sequence (looked up): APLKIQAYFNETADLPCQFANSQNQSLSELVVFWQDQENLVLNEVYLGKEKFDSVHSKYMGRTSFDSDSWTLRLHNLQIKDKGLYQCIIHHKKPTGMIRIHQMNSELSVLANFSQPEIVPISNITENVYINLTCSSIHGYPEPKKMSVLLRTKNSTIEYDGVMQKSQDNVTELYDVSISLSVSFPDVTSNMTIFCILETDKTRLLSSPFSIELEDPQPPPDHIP

T3: human B7-1 (CD80) expressed on the cell surface (CHO/hB7-1 cells) (human, UniProt P33681 35-288)
T3 construct: whole, on cells; Also used for native B7-1 on human PBL in the MLR; also called rhB7-1
T3 sequence (looked up): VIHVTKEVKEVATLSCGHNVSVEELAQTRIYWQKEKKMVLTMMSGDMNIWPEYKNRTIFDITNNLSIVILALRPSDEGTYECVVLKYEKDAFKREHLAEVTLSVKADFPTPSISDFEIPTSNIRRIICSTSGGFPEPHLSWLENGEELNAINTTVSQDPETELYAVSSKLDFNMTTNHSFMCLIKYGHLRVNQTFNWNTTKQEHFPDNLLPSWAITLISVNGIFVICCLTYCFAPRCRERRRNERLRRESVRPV


What was measured:
[1] = molecular target: T1, human B7-2 (CD86) expressed on the cell …; experiment: cell-based or functional assay
[2] = molecular target: T2, human B7-2Ig (recombinant soluble …); experiment: SPR (BIACORE), hB7-2Ig immobilized
Method: (§1) The BIACORE® biosensor (BIACORE®; Uppsalla, Sweden) was used to determine binding kinetics of murine and humanized anti-B7-2 human antibodies to human B7-2Ig. Hunan B7-2Ig (hB7-2Ig) was immobilized onto the dextran matrix of a BIACORE® sensor chip. Humanized and murine anti-human B7-2 were tested at 200, 100, 50, and 20 nM. Each dilution was tested 4 times per run and a total of three separate runs performed. Anti-human B7-2 antibody binding was measured in real time by Surface Plasmon Resonance (SPR) and global analysis was performed using the bivalent binding model in BIA evaluation software (version 3.1). For each sample, the association (kₐ), dissociation (kd), and equilibrium dissociation constant (KD) were determined.

[3] = molecular target: T1, human B7-2 (CD86) expressed on the cell …; experiment: competitive binding against 125I-murine 3D1 on CHO/hB7-2 cells
Method: (§2) The relative affinities, of the murine and humanized 3D1 antibodies for the B7-2 antigen were determined by competitive binding assays. Three-fold serial dilutions of unlabeled humanized or murine 3D1 antibodies were mixed with a fixed amount of radio-iodinated murine 3D1 antibody (40,000-50,000 cpm per test in PBS containing 2% fetal calf serum).
(§3) 1×10⁵ CHO cells expressing cell surface rhB7-2 (CHO/hB7-2) were added subsequently and the mixture (in a total volume of 200 μL) was incubated for 2 hr at 4° C. with gentle shaking. The cell-antibody suspension was then transferred to Sarstedt Micro Tubes (part #72.702) containing 100 μL of 80% dibutyl phthalate-20% olive oil. After centrifugation in a microfuge, the Sarstedt tubes were plunged into dry ice for several minutes. Cell-bound ¹²⁵I was determined by clipping tips of each tube (containing cell pellets) into scintillation vials and counting in a gamma counter. Bound and free counts were determined and the ratio plotted against the concentrations of the cold competitor antibodies according to the method of Berzofsky and Berkower (J. A. Berzofsky and I. J. Berkower, in Fundamental Immunology 9ed. W. E. Paul), Raven Press (New York), 595 (1984)).

[4] = molecular target: T2, human B7-2Ig (recombinant soluble …); experiment: SPR (BIACORE), hB7-2Ig immobilized, bivalent model, mean of three runs
Method: as §1

[5] = molecular target: T1, human B7-2 (CD86) expressed on the cell …; experiment: direct binding of 125I-labeled antibody to CHO/hB7-2 cells, half-maximal binding
Description: (§4) Binding assays were begun by plating cells onto 96-well tissue culture plates at 10,000 CHO/hB7-2 cells per well. Two days later, adherent cells were gently washed with assay buffer containing nonfat dry milk protein (for blocking nonspecific binding) and sodium azide (to prevent internalization of antibodies by cells). For direct binding assays, ¹²⁵I-labeled anti-B7 antibodies (¹²⁵I-murine anti-human B7-2; 826 cpm/fmol; humanized anti-human B7-2, 883 cpm/fmol) were serially diluted in assay buffer and incubated on cells overnight, allowing antibodies to bind to cell-surface B7 and come to equilibrium. Unbound antibody was gently washed from cells, and bound ¹²⁵I-labeled antibody was detected using an ¹²⁵I scintillant and photodetector system. Non-specific binding to CHO cells was determined for each dilution in the same manner, but on cells expressing the B7-1 molecule that is not recognized by the antibody being tested.
The data, means of triplicate wells with nonspecific binding subtracted, were fit to a hyperbolic saturation curve using Graphpad PrismJ software. […] Both murine and humanized anti-B7-2 antibodies recognize cell surface expressed hB7-2 with high affinity.

[6] = molecular target: T3, human B7-1 (CD80) expressed on the cell …; experiment: 125I direct binding, CHO cells expressing B7-1 as control for non-specific binding
Description: as §4

[7] = molecular target: T1, human B7-2 (CD86) expressed on the cell …; experiment: competition binding on CHO/hB7-2 cells: unlabeled competitor against 125I-murine 3D1 tracer, bound/free ratio
Method: as §2, §3

[8] = molecular target: T3, human B7-1 (CD80) expressed on the cell …; experiment: competitive binding against 125I-humanized 1F1 on CHO cells expressing rhB7-1
Method: as §3, with “The affinity of the mouse and humanized 1F1 antibodies for the B7-1 antigen was determined by competitive binding with radio-iodinated humanized 1F1 antibody. Three-fold serial dilutions of unlabeled mouse or humanized 1F1 antibodies were mixed with a fixed amount of radio-iodinated humanized 1F1 antibody (40,000-50,000 cpm per test) in PBS containing 2% fetal calf serum, 0.1% sodium azide. 3×10⁴” for “1×10⁵”, “rhB7-1” for “rhB7-2 (CHO/hB7-2)”, “clipping the” for “clipping”, “Immunology,” for “Immunology 9ed.”, “Paul,” for “Paul),”, “Press, New York, pp. 595-644” for “Press (New York), 595”

[9] = molecular target: T3, human B7-1 (CD80) expressed on the cell …; experiment: competition binding on CHO cells expressing rhB7-1: unlabeled competitor against 125I-humanized 1F1 tracer, bound/free ratio
Method: as §3, with “The affinity of the mouse and humanized 1F1 antibodies for the B7-1 antigen was determined by competitive binding with radio-iodinated humanized 1F1 antibody. Three-fold serial dilutions of unlabeled mouse or humanized 1F1 antibodies were mixed with a fixed amount of radio-iodinated humanized 1F1 antibody (40,000-50,000 cpm per test) in PBS containing 2% fetal calf serum, 0.1% sodium azide. 3×10⁴” for “1×10⁵”, “rhB7-1” for “rhB7-2 (CHO/hB7-2)”, “clipping the” for “clipping”, “Immunology,” for “Immunology 9ed.”, “Paul,” for “Paul),”, “Press, New York, pp. 595-644” for “Press (New York), 595”

Row | IC50 of inhibition of CD28+ human T cell proliferation stimulated with PMA and CHO/hB7-2 cells [1] [nM] | Ka [3] [M⁻¹] | Kd [4] [nM] | Kd [5] [nM] | binding result [6] | Binder | other results
1 | 0.072 | ~1e+09 | 1.8 | ~1 | no binding | murine 3D1 monoclonal antibody (murine anti-human B7-2 mAb) (antibody, V domains shown, Hybridoma mouse antibody with kappa light chain; also called HF2.3D1; mouse 3D1) VH: QVQLQQSGPELVRPGESVKISCKGSGYTFTDYAIQWVKQSHAKSLEWIGVINIYYDNTNYNQKFKGKATMTVDKSSSTAYMELARLTSEDSAIYYCARAAWYMDYWGQGTSVTVSS VL: DIVLSQSPSSLAVSAGEKVTMSCKSSQSLLNSRTRENYLAWYQQKPGQSPKLLIYWASTRESGVPDRFTGSGSGTDFTLTISSVQAEDLAVYYCTQSYNLYTFGGGTKLEIK | fold higher affinity than the humanized anti-B7-2 mAb [2]: ~2.8 fold
2 | 0.05 |  | 5.1 | ~1 | no binding | humanized anti-human B7-2 mAb (humanized 3D1), isotype not stated in the example (antibody, V domains shown, Same variable regions; The entries include signal peptides (see the note of m2); also called humanized anti-B7-2; humanized anti-hB7-2) VH: QVQLVQSGAEVKKPGSSVKVSCKASGYTFTDYAIQWVRQAPGQGLEWIGVINIYYDNTNYNQKFKGKATMTVDKSTSTAYMELSSLRSEDTAVYYCARAAWYMDYWGQGTLVTVSS VL: DIVLTQSPDSLAVSLGERATISCKSSQSLLNSRTRENYLAWYQQKPGQPPKLLIYWASTRESGVPDRFSGSGSGTDFTLTISSLQAEDVAVYYCTQSYNLYTFGQGTKVEIK | 
3 |  | ~1e+09 |  |  |  | humanized 3D1 antibody, IgG2.M3 form (antibody, V domains shown, Human gamma 2 constant region variant M3 (Val and Gly at positions 234 and 237 replaced with Ala; pVg2.M3 vector) and human kappa light chain; The entries include signal peptides (see the note of m2); also called humanized IgG2.M3 anti-human B7-2; hu3D1) VH: QVQLVQSGAEVKKPGSSVKVSCKASGYTFTDYAIQWVRQAPGQGLEWIGVINIYYDNTNYNQKFKGKATMTVDKSTSTAYMELSSLRSEDTAVYYCARAAWYMDYWGQGTLVTVSS VL: DIVLTQSPDSLAVSLGERATISCKSSQSLLNSRTRENYLAWYQQKPGQPPKLLIYWASTRESGVPDRFSGSGSGTDFTLTISSLQAEDVAVYYCTQSYNLYTFGQGTKVEIK | 
4 |  | ~1e+09 |  |  |  | humanized 3D1 antibody, IgG4 form (antibody, V domains shown, Human gamma 4 constant region (pVg4 vector) and human kappa light chain (pVk); also called humanized IgG4 anti-human B7-2; hu3D1) VH: QVQLVQSGAEVKKPGSSVKVSCKASGYTFTDYAIQWVRQAPGQGLEWIGVINIYYDNTNYNQKFKGKATMTVDKSTSTAYMELSSLRSEDTAVYYCARAAWYMDYWGQGTLVTVSS VL: DIVLTQSPDSLAVSLGERATISCKSSQSLLNSRTRENYLAWYQQKPGQPPKLLIYWASTRESGVPDRFSGSGSGTDFTLTISSLQAEDVAVYYCTQSYNLYTFGQGTKVEIK | IC50 (read off the curve) [7]: ~1 nM
5 |  |  |  |  |  | humanized 1F1 antibody, IgG2.M3 form (antibody, V domains shown, Human gamma 2 constant region variant M3 (Val and Gly at positions 234 and 237 replaced with Ala) and human kappa light chain; also called hu1F1; the IgG2.M3 antibody) VH: EVQLVQSGAEVKKPGASVKVSCKPSGFNIKDYYMHWVRQAPGQGLEWIGWIDPENGNTLYDPKFQGKATITADTSTSTAYMELSSLRSEDTAVYYCAREGLFFAYWGQGTLVTVSS VL: DIQMTQSPSSLSASVGDRVTITCSVSSSISSSNLHWYQQKPGKAPKPLIYGTSNLASGVPSRFSGSGSGTDYTLTISSLQPEDVATYYCQQWSSYPLTFGQGTKVEIK | Ka [8]: ~1e+09 M⁻¹; IC50 (read off the curve) [9]: ~1 nM
